# Laboratory results: patent publication US20230416365A1 (Hoffmann-La Roche, published 2023)
# T1: human CD19 on Nalm6 B cells (human, UniProt P15391 20-556)
# T1 sequence: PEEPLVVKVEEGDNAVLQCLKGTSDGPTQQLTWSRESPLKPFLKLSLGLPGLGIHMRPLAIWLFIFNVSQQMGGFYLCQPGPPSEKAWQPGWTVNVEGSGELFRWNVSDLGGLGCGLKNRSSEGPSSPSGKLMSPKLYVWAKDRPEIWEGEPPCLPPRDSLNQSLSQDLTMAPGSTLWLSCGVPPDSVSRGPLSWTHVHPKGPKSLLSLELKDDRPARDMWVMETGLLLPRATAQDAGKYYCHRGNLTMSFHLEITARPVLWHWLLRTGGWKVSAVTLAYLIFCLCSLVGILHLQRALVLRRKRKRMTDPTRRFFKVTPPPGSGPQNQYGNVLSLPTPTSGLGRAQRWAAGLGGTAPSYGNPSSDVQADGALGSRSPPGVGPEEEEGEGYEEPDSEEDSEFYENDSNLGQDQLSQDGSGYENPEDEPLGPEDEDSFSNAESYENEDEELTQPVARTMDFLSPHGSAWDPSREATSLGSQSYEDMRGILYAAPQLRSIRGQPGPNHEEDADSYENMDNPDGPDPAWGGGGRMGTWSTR
# B1: FAP (4B9) - CD28 (CD28(SA)_Variant 29) 1+1 (bispecific antibody, human IgG1, kappa, L234A L235A)
# heavy 1: EIVLTQSPGTLSLSPGERATLSCRASQSVTSSYLAWYQQKPGQAPRLLINVGSRRATGIPDRFSGSGSGTDFTLTISRLEPEDFAVYYCQQGIMLPPTFGQGTKVEIKSSASTKGPSVFPLAPSSKSTSGGTAALGCLVKDYFPEPVTVSWNSGALTSGVHTFPAVLQSSGLYSLSSVVTVPSSSLGTQTYICNVNHKPSNTKVDKKVEPKSCDKTHTCPPCPAPEAAGGPSVFLFPPKPKDTLMISRTPEVTCVVVDVSHEDPEVKFNWYVDGVEVHNAKTKPREEQYNSTYRVVSVLTVLHQDWLNGKEYKCKVSNKALGAPIEKTISKAKGQPREPQVCTLPPSRDELTKNQVSLSCAVKGFYPSDIAVEWESNGQPENNYKTTPPVLDSDGSFFLVSKLTVDKSRWQQGNVFSCSVMHEALHNHYTQKSLSLSP
# light 1: EVQLLESGGGLVQPGGSLRLSCAASGFTFSSYAMSWVRQAPGKGLEWVSAIIGSGASTYYADSVKGRFTISRDNSKNTLYLQMNSLRAEDTAVYYCAKGWFGGFNYWGQGTLVTVSSASVAAPSVFIFPPSDEQLKSGTASVVCLLNNFYPREAKVQWKVDNALQSGNSQESVTEQDSKDSTYSLSSTLTLSKADYEKHKVYACEVTHQGLSSPVTKSFNRGEC
# heavy 2: not shown
# light 2: not shown
# notes: huIgG1 PG-LALA CrossFab 1+1; also called P1AE3141
# B2: FAP (4B9) - CD28 (CD28(SA)_Variant 23) 1+1 (bispecific antibody, human IgG1, kappa, L234A L235A)
# heavy 1: B1 heavy 1
# light 1: B1 light 1
# heavy 2: not shown
# light 2: not shown
# notes: huIgG1 PG-LALA CrossFab 1+1; also called P1AE3138
# B3: FAP (4B9) - CD28 (CD28(SA)_Variant 19) 1+1 (bispecific antibody, human IgG1, kappa, L234A L235A)
# heavy 1: B1 heavy 1
# light 1: B1 light 1
# heavy 2: not shown
# light 2: not shown
# notes: huIgG1 PG-LALA CrossFab 1+1; also called P1AE3137
# B4: FAP (4B9) - CD28 (CD28(SA)_Variant 25) 1+1 (bispecific antibody, human IgG1, kappa, L234A L235A)
# heavy 1: B1 heavy 1
# light 1: B1 light 1
# heavy 2: not shown
# light 2: not shown
# notes: huIgG1 PG-LALA CrossFab 1+1; also called P1AE3139
# B5: CD19 (8B8-2B11)-CD28 (SA_v8) 1+1 (Molecule 18C) (bispecific antibody, human IgG1, kappa, L234A L235A)
# heavy 1: not shown
# light 1: not shown
# heavy 2: DIVMTQTPLSLSVTPGQPASISCKSSQSLETSTGTTYLNWYLQKPGQSPQLLIYRVSKRFSGVPDRFSGSGSGTDFTLKISRVEAEDVGVYYCLQLLEDPYTFGQGTKLEIKSSASTKGPSVFPLAPSSKSTSGGTAALGCLVKDYFPEPVTVSWNSGALTSGVHTFPAVLQSSGLYSLSSVVTVPSSSLGTQTYICNVNHKPSNTKVDKKVEPKSCDKTHTCPPCPAPEAAGGPSVFLFPPKPKDTLMISRTPEVTCVVVDVSHEDPEVKFNWYVDGVEVHNAKTKPREEQYNSTYRVVSVLTVLHQDWLNGKEYKCKVSNKALGAPIEKTISKAKGQPREPQVCTLPPSRDELTKNQVSLSCAVKGFYPSDIAVEWESNGQPENNYKTTPPVLDSDGSFFLVSKLTVDKSRWQQGNVFSCSVMHEALHNHYTQKSLSLSP
# light 2: QVQLVQSGAEVKKPGASVKVSCKASGYTFTDYIMHWVRQAPGQGLEWMGYINPYNDGSKYTEKFQGRVTMTSDTSISTAYMELSRLRSDDTAVYYCARGTYYYGPQLFDYWGQGTTVTVSSASVAAPSVFIFPPSDEQLKSGTASVVCLLNNFYPREAKVQWKVDNALQSGNSQESVTEQDSKDSTYSLSSTLTLSKADYEKHKVYACEVTHQGLSSPVTKSFNRGEC
# notes: huIgG1 PG-LALA CrossFab; also called P1AF0175; CD19-CD28 v8
# B6: CD19 (8B8-2B11)-CD28 (SA_v27) 1+1 (Molecule E of Example 18; 18E) (bispecific antibody, human IgG1, kappa, L234A L235A)
# heavy 1: not shown
# light 1: not shown
# heavy 2: B5 heavy 2
# light 2: B5 light 2
# notes: huIgG1 PG-LALA CrossFab; also called P1AF0378; CD19-CD28 v27
# B7: CD19 (8B8-2B11)-CD28 (SA_v11) 1+1 (Molecule D of Example 18; 18D) (bispecific antibody, human IgG1, kappa, L234A L235A)
# heavy 1: not shown
# light 1: not shown
# heavy 2: B5 heavy 2
# light 2: B5 light 2
# notes: huIgG1 PG-LALA CrossFab; also called P1AF0377; CD19-CD28 v11
# B8: CD19 (8B8-2B11)-CD28 (SA_v15) 1+1 (Molecule 18B) (bispecific antibody, human IgG1, kappa, L234A L235A)
# heavy 1: not shown
# light 1: not shown
# heavy 2: B5 heavy 2
# light 2: B5 light 2
# notes: huIgG1 PG-LALA CrossFab; also called P1AE9040; CD19-CD28 v15
# B9: CD19 (8B8-2B11)-CD28 (SA_v29) 1+1 (Molecule 18A) (bispecific antibody, human IgG1, kappa, L234A L235A)
# heavy 1: not shown
# light 1: not shown
# heavy 2: B5 heavy 2
# light 2: B5 light 2
# notes: huIgG1 PG-LALA CrossFab; also called P1AE8002; CD19-CD28 v29
# B10: FAP-CD28 H2T (P1AE2021) (bispecific antibody, human IgG1, kappa, L234A L235A)
# heavy chain CD28(SA) VLCH1 - FAP(4B9) VHCH1 EE - Fc knob PGLALA: not shown
# CD28(SA) VHCL: QVQLVQSGAEVKKPGASVKVSCKASGYTFTSYYIHWVRQAPGQGLEWIGCIYPGNVNTNYNEKFKDRATLTVDTSISTAYMELSRLRSDDTAVYFCTRSHYGLDWNFDVWGQGTTVTVSSASVAAPSVFIFPPSDEQLKSGTASVVCLLNNFYPREAKVQWKVDNALQSGNSQESVTEQDSKDSTYSLSSTLTLSKADYEKHKVYACEVTHQGLSSPVTKSFNRGEC
# FAP(4B9) VLCL RK: EIVLTQSPGTLSLSPGERATLSCRASQSVTSSYLAWYQQKPGQAPRLLINVGSRRATGIPDRFSGSGSGTDFTLTISRLEPEDFAVYYCQQGIMLPPTFGQGTKVEIKRTVAAPSVFIFPPSDRKLKSGTASVVCLLNNFYPREAKVQWKVDNALQSGNSQESVTEQDSKDSTYSLSSTLTLSKADYEKHKVYACEVTHQGLSSPVTKSFNRGEC
# Fc hole PGLALA: DKTHTCPPCPAPEAAGGPSVFLFPPKPKDTLMISRTPEVTCVVVDVSHEDPEVKFNWYVDGVEVHNAKTKPREEQYNSTYRVVSVLTVLHQDWLNGKEYKCKVSNKALGAPIEKTISKAKGQPREPQVCTLPPSRDELTKNQVSLSCAVKGFYPSDIAVEWESNGQPENNYKTTPPVLDSDGSFFLVSKLTVDKSRWQQGNVFSCSVMHEALHNHYTQKSLSLSP
# notes: head-to-tail 1+1 format; also called Molecule H; FAP(4B9)-CD28(SA) C-01
# B11: FAP(4B9)-CD28(SA) 1+1 format (Molecule C) (bispecific antibody, human IgG1, kappa, L234A L235A)
# heavy 1: not shown
# light 1: not shown
# heavy 2: B1 heavy 1
# light 2: B1 light 1
# notes: huIgG1 PG-LALA CrossFab, knob-into-hole; also called P1AD4492; parental
# B12: FAP(4B9)-CD28(SA) 1+2 format (Molecule E) (bispecific antibody, human IgG1, kappa, L234A L235A)
# heavy 1: not shown
# heavy 2: QVQLVQSGAEVKKPGASVKVSCKASGYTFTSYYIHWVRQAPGQGLEWIGCIYPGNVNTNYNEKFKDRATLTVDTSISTAYMELSRLRSDDTAVYFCTRSHYGLDWNFDVWGQGTTVTVSSASTKGPSVFPLAPSSKSTSGGTAALGCLVKDYFPEPVTVSWNSGALTSGVHTFPAVLQSSGLYSLSSVVTVPSSSLGTQTYICNVNHKPSNTKVDKKVEPKSCDKTHTCPPCPAPEAAGGPSVFLFPPKPKDTLMISRTPEVTCVVVDVSHEDPEVKFNWYVDGVEVHNAKTKPREEQYNSTYRVVSVLTVLHQDWLNGKEYKCKVSNKALGAPIEKTISKAKGQPREPQVCTLPPSRDELTKNQVSLSCAVKGFYPSDIAVEWESNGQPENNYKTTPPVLDSDGSFFLVSKLTVDKSRWQQGNVFSCSVMHEALHNHYTQKSLSLSPGGGGGSGGGGSGGGGSGGGGSEIVLTQSPGTLSLSPGERATLSCRASQSVTSSYLAWYQQKPGQAPRLLINVGSRRATGIPDRFSGSGSGTDFTLTISRLEPEDFAVYYCQQGIMLPPTFGQGTKVEIK
# light: not shown
# notes: bivalent anti-CD28, monovalent anti-FAP (VH and VL fused to the C-termini of the Fc chains); also called P1AD9011; FAP-CD28 1+2 SA
# B13: FAP-CD28 CTF (P1AE2236) (bispecific antibody, human IgG1, kappa, L234A L235A)
# CD28(SA) light chain: not shown
# heavy chain CD28(SA) VHCH - Fc hole - FAP(4B9) VL: B12 heavy 2
# Fc knob - FAP(4B9) VH: not shown
# notes: also called Molecule I; FAP(4B9)-CD28(SA) C-04
# Target: T2, human CD28 on CHO cells (parental cell line CHO-k1 ATCC #CCL-61, modified to stably overexpress human CD28) (human, UniProt P10747 19-220)
# T2 construct: also called hu CD28; CHO-hCD28
# Assay: binding to CHO cells expressing human CD28 (by the table's title)
# Experimental: (§1) Binding was assessed by flow cytometry with a FACS Fortessa (BD, Software FACS Diva). Binding curves were obtained using GraphPadPrism6.
row,Kd [nM],Binder
1,1.1,B1
2,16.3,B2
3,1.1,B3
4,1.7,B4

# Target: T2, human CD28 on CHO cells (parental cell …)
# Assay: flow cytometry on CHOk1-CD28 cells
# Experimental: as §1
row,EC50 [nM],Binder
1,232,B5
2,10.8,B6
3,150,B7
4,15.6,B8
5,6.65,B9

# Target: T3, biotinylated huCD28-Fc (dimeric CD28-Fc construct with a monovalent biotinylated avi-tag) (human, UniProt P10747 19-152, biotinylated at the C-terminal avi tag)
# T3 construct: not shown: hum IgG1 Fc fragment with hole and PG-LALA mutations; hum IgG1 Fc fragment with knob and PG-LALA mutations
# Assay: SPR, ProteOn XPR36, huCD28-Fc on NLC chip, bispecific as analyte
Kd [nM],koff [s⁻¹],kon [M⁻¹ s⁻¹],Binder
1.1,0.000307,272000,B1
16.3,0.00342,211000,B2
1.1,0.000304,280000,B3
1.7,0.000396,238000,B4

# Target: T1, human CD19 on Nalm6 B cells
# Assay: flow cytometry on Nalm6 B cells
# Experimental: Binding was assessed by flow cytometry with a FACS Fortessa (BD, Software FACS Diva). Binding curves were obtained using GraphPadPrism7.
row,EC50 [nM],Binder
1,0.232,B5
2,0.368,B6
3,0.363,B7
4,0.416,B8
5,0.274,B9

# Target: T4, human FAP on 3T3-huFAP cells (clone 19) (human, UniProt Q12884 1-760)
# Assay: flow cytometry on 3T3-huFAP cells, FAP-CD28 1+1 constructs, MFI (PE)
row,binding result,Binder
1,binds,B1
2,binds,B2
3,binds,B3
4,binds,B4

# Target: T4, human FAP on 3T3-huFAP cells (clone 19)
# Assay: flow cytometry on 3T3-huFAP cells, median fluorescence intensity (axis MFI APC)
# Experimental: as §1
row,EC50 (read off the curve) [nM],Binder
1,~1,B10
2,~1,B11
3,~4,B12
4,~2,B13
